In PMC10397247:
Like-named read-outs stand apart in the source and are kept apart here.

T1: 4H63-AA
T1 chain: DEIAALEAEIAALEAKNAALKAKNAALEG

T2: 4H483-AA
T2 chain: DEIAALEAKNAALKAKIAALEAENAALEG

T3: 4H464-AA
T3 chain: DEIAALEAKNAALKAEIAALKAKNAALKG

T4: 4H909-AA
T4 chain: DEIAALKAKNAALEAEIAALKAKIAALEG

T5: 4H3753-AA
T5 chain: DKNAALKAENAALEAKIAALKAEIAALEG

T6: 4H745-AA
T6 chain: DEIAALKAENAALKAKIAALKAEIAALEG

T7: 4H536-AA
T7 chain: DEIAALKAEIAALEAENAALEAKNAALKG

T8: 4H797-AA
T8 chain: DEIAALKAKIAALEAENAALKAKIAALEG

T9: 4H3697-AA
T9 chain: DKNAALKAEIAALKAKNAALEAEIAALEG

T10: 4H3165-AA
T10 chain: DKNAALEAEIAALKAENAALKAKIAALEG

T11: 4H3381-AA
T11 chain: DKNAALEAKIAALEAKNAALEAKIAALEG

T12: 4H94-AA
T12 chain: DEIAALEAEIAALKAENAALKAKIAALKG

T13: 4H3130-AA
T13 chain: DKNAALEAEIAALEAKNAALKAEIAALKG

T14: 4H629-AA
T14 chain: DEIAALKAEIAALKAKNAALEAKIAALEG

T15: 4H3120-AA
T15 chain: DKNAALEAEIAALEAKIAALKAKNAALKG

T16: 4H710-AA
T16 chain: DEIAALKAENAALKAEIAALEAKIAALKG

T17: 4H930-AA
T17 chain: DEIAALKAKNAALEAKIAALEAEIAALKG

T18: 4H3395-AA
T18 chain: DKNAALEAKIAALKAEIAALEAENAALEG

T19: 4H850-AA
T19 chain: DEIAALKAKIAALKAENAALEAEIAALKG

T20: 4H3410-AA
T20 chain: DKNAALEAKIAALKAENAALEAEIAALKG

T21: 4H458-AA
T21 chain: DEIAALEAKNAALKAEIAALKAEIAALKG

T22: 4H891-AA
T22 chain: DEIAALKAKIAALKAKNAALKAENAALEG

T23: 4H570-AA
T23 chain: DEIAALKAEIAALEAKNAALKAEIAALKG

T24: 4H3865-AA
T24 chain: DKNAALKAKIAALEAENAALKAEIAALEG

T25: 4H3590-AA
T25 chain: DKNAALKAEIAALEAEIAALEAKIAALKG

T26: 4H485-AA
T26 chain: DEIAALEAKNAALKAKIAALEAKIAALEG

T27: 4H797-bA
T27 chain: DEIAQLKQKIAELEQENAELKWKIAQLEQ

T28: 4H953-bA
T28 chain: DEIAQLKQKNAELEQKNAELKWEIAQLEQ

T29: 4H918-bA
T29 chain: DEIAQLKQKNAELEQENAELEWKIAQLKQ

T30: 4H754-bA
T30 chain: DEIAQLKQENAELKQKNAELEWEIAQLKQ

T31: 4H908-bA
T31 chain: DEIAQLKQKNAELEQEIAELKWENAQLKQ

T32: 4H883-bA
T32 chain: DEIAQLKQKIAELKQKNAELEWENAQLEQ

T33: 4H72-bA
T33 chain: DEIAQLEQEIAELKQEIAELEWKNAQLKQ

T34: 4H967-bA
T34 chain: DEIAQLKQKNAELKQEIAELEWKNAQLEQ

T35: 4H432-AA
T35 chain: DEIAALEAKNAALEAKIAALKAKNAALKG

T36: 4H3974-AA
T36 chain: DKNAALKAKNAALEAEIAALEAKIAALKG

T37: 4H3915-AA
T37 chain: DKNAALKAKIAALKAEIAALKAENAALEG

T38: 4H446-AA
T38 chain: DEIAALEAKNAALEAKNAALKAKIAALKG

T39: 4H953-bH
T39 chain: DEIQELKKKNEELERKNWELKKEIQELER

T40: 4H967-bH
T40 chain: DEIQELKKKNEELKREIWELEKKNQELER

T41: 4H918-bH
T41 chain: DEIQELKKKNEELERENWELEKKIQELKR

T42: 4H908-bH
T42 chain: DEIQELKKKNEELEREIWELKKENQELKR


Columns and labels:
4H63-AA = target: T1, 4H63-AA; assay: two-hybrid library CCmax; conditions: mean of both orientations;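 further: natural log of median RNA to DNA barcode read ratio; higher means stronger binding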
4H483-AA = target: T2, 4H483-AA; assay: two-hybrid library CCmax; conditions: mean of both orientations;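 further: natural log of median RNA to DNA barcode read ratio; higher means stronger binding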
4H464-AA = target: T3, 4H464-AA; assay: two-hybrid library CCmax;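 further: natural log of median RNA to DNA barcode read ratio; higher means stronger binding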
4H909-AA = target: T4, 4H909-AA; assay: two-hybrid library CCmax; conditions: mean of both orientations;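 further: natural log of median RNA to DNA barcode read ratio; higher means stronger binding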
4H3753-AA = target: T5, 4H3753-AA; assay: two-hybrid library CCmax; conditions: mean of both orientations
4H745-AA = target: T6, 4H745-AA; assay: two-hybrid library CCmax; conditions: mean of both orientations
4H536-AA = target: T7, 4H536-AA; assay: two-hybrid library CCmax; conditions: mean of both orientations
4H797-AA = target: T8, 4H797-AA; assay: two-hybrid library CCmax; conditions: mean of both orientations
4H3697-AA = target: T9, 4H3697-AA; assay: two-hybrid library CCmax; conditions: mean of both orientations
4H3165-AA = target: T10, 4H3165-AA; assay: two-hybrid library CCmax; conditions: mean of both orientations
4H3381-AA = target: T11, 4H3381-AA; assay: two-hybrid library CCmax; conditions: mean of both orientations
4H94-AA = target: T12, 4H94-AA; assay: two-hybrid library CCmax; conditions: mean of both orientations
4H3130-AA = target: T13, 4H3130-AA; assay: two-hybrid library CCmax
4H629-AA = target: T14, 4H629-AA; assay: two-hybrid library CCmax; conditions: mean of both orientations
4H3120-AA = target: T15, 4H3120-AA; assay: two-hybrid library CCmax
4H710-AA = target: T16, 4H710-AA; assay: two-hybrid library CCmax; conditions: mean of both orientations
4H930-AA = target: T17, 4H930-AA; assay: two-hybrid library CCmax; conditions: mean of both orientations
4H3395-AA = target: T18, 4H3395-AA; assay: two-hybrid library CCmax; conditions: mean of both orientations
4H850-AA = target: T19, 4H850-AA; assay: two-hybrid library CCmax; conditions: mean of both orientations
4H3410-AA = target: T20, 4H3410-AA; assay: two-hybrid library CCmax; conditions: mean of both orientations
4H458-AA = target: T21, 4H458-AA; assay: two-hybrid library CCmax; conditions: mean of both orientations
4H891-AA = target: T22, 4H891-AA; assay: two-hybrid library CCmax; conditions: mean of both orientations
4H570-AA = target: T23, 4H570-AA; assay: two-hybrid library CCmax; conditions: mean of both orientations
4H3865-AA = target: T24, 4H3865-AA; assay: two-hybrid library CCmax; conditions: mean of both orientations
4H3590-AA = target: T25, 4H3590-AA; assay: two-hybrid library CCmax; conditions: mean of both orientations
4H485-AA = target: T26, 4H485-AA; assay: two-hybrid library CCmax; conditions: mean of both orientations
4H797-bA = target: T27, 4H797-bA; assay: two-hybrid library CCNG1
4H953-bA = target: T28, 4H953-bA; assay: two-hybrid library CCNG1
4H918-bA = target: T29, 4H918-bA; assay: two-hybrid library CCNG1
4H754-bA = target: T30, 4H754-bA; assay: two-hybrid library CCNG1
4H908-bA = target: T31, 4H908-bA; assay: two-hybrid library CCNG1
4H883-bA = target: T32, 4H883-bA; assay: two-hybrid library CCNG1
4H72-bA = target: T33, 4H72-bA; assay: two-hybrid library CCNG1
4H967-bA = target: T34, 4H967-bA; assay: two-hybrid library CCNG1
4H432-AA = target: T35, 4H432-AA; assay: two-hybrid library CCmax; conditions: mean of both orientations
4H3974-AA = target: T36, 4H3974-AA; assay: two-hybrid library CCmax; conditions: mean of both orientations
4H3915-AA = target: T37, 4H3915-AA; assay: two-hybrid library CCmax
4H446-AA = target: T38, 4H446-AA; assay: two-hybrid library CCmax; conditions: mean of both orientations
4H953-bH = target: T39, 4H953-bH; assay: two-hybrid library CCNG1
4H967-bH = target: T40, 4H967-bH; assay: two-hybrid library CCNG1
4H918-bH = target: T41, 4H918-bH; assay: two-hybrid library CCNG1
4H908-bH = target: T42, 4H908-bH; assay: two-hybrid library CCNG1

Binder | interaction score (4H63-AA) | interaction score (4H909-AA) | interaction score (4H3753-AA) | interaction score (4H745-AA) | interaction score (4H536-AA) | interaction score (4H797-AA) | interaction score (4H3697-AA) | interaction score (4H3165-AA) | interaction score (4H3381-AA) | interaction score (4H94-AA) | interaction score (4H629-AA) | interaction score (4H710-AA) | interaction score (4H930-AA) | interaction score (4H3395-AA) | interaction score (4H850-AA) | interaction score (4H3410-AA) | interaction score (4H458-AA) | interaction score (4H891-AA) | interaction score (4H570-AA) | interaction score (4H3865-AA) | also measured
DEIAALEAKNAALKAEIAALKAKNAALKG [4H464-AA] | -1.22 |  |  |  |  |  |  |  |  |  |  |  |  |  |  |  |  |  |  |  | interaction score (4H483-AA): -0.618; interaction score (4H464-AA): -1.22
DKNAALEAEIAALEAKIAALKAKNAALKG [4H3120-AA] |  | -1.58 | 0.619 | -1.09 | 1.51 | -1.9 | -1.39 | -1.33 | -1.79 | -1.07 | -1.66 | -1.56 | -1.5 | 2.17 | -0.918 | -1.25 | -1.3 | -0.991 | -0.988 | -1.52 | interaction score (4H3130-AA; mean of both orientations): -0.632; interaction score (4H3120-AA): 1.15; interaction score (4H3590-AA): 1.08; interaction score (4H485-AA): -0.737
DKNAALEAEIAALEAKNAALKAEIAALKG [4H3130-AA] |  | -1.06 | -0.789 | -1.54 | -0.902 | -1.21 | -0.0288 | -1.3 | -1.07 | -0.202 | -1.31 | -1.31 | -1.73 | -1.29 | 2.04 | 2.07 | -3.23 | -1.99 | -0.712 | 1.11 | interaction score (4H3130-AA): 0.118; interaction score (4H3590-AA): 0.624; interaction score (4H485-AA): -1.58
DEIAQLEQEIAELKQEIAELEWKNAQLKQ [4H72-bA] |  |  |  |  |  |  |  |  |  |  |  |  |  |  |  |  |  |  |  |  | interaction score (4H797-bA): -0.956; interaction score (4H953-bA): -0.161; interaction score (4H918-bA): -0.479; interaction score (4H754-bA): -0.173; interaction score (4H908-bA): -0.464; interaction score (4H883-bA): 1.05; interaction score (4H72-bA): 0.83; interaction score (4H967-bA): -0.0446
DKNAALKAKIAALKAEIAALKAENAALEG [4H3915-AA] | 0.485 |  |  |  |  |  |  |  |  |  |  |  |  |  |  |  |  |  |  |  | interaction score (4H432-AA): -1.16; interaction score (4H3974-AA): -0.146; interaction score (4H3915-AA): -0.838; interaction score (4H446-AA): -1.7
DEIQELKKKNEELEREIWELKKENQELKR [4H908-bH] |  |  |  |  |  |  |  |  |  |  |  |  |  |  |  |  |  |  |  |  | interaction score (4H953-bH): -0.842; interaction score (4H967-bH): -0.426; interaction score (4H918-bH): -2.03; interaction score (4H908-bH): 0.057
